One series deals with PSMA (FOLH1/NAALADase I) (UniProt Q04609 Q04609:44-750). The experiment in a line: ELONA; ELISA against recombinant PSMA, values only in figure. The following applies: label: biotin. (In an ELISA, binding on a coated surface is turned into a signal by an enzyme label.)
Series [1] concerns the target T1, EpCAM (UniProt P16422 P16422:24-265).
T1 sequence: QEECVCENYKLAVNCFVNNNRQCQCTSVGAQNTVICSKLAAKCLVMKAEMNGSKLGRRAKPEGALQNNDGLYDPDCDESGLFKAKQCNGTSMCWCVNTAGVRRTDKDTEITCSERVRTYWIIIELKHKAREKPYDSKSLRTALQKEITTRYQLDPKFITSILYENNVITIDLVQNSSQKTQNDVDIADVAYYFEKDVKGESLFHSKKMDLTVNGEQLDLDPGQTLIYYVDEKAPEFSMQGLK
The experiment in a line: SPR; immobilized biotinylated aptamer, HBS-EP+ buffer, global fit. The following applies: label: biotin.

Series [2] addresses T1, EpCAM. The experiment in a line: bead fluorescence assay, anti-His beads; improved by 1 mM MgCl2 in 25 mM HEPES; lower affinity than Aptamer 4. Conditions: tags: His tag; label: biotin / SA-PE. How it is done:
Purified CAR003 aptamer was tested for binding to recombinant EPCAM protein with a polyhistidine tag (“His tagged”) using the following internally developed assay. Anti-His tag conjugated beads were mixed with EPCAM-His tagged protein. The aptamer to be tested was labeled with streptavidin-phycoerythrin (SA-PE). The EpCAM-beads and SA-PE labeled aptamers were mixed. Binding was determined as median flourescent value in a bead assay as described herein. MFI values (FIG. 20E-F) increase with increased binding of the SA-PE labeled aptamer to the recombinant EpCAM. FIGS. 20E-F illustrate binding of CAR003 to EPCAM protein in 25 mM HEPES with PBS-BN (PBS, 1% BSA, 0.05% Azide, pH 7.4) (FIG. 20E) or in 25 mM HEPES with 1 mM MgCl₂ (FIG. 20F). EPCAM aptamer Aptamer 4 (see above) was used for comparison. As shown in the figures, CAR003 pool 3 more efficiently binds its target in the presence of MgCl₂ (FIG. 20F) than in the presence of BSA (FIG. 20E).
CAR003 affinity to EpCAM in the bead assay environment was assessed in the same assay as above with aptamer titrated across a constant input of antigen. FIG. 20I illustrates titration of aptamers against EPCAM recombinant protein (constant input 5 μg).

Series [3] concerns the target T1, EpCAM. The experiment in a line: ELONA; standard ELISA plate. Conditions: tags: Fc fusion; label: biotin.
The target of series [4] is T1, EpCAM. The experiment in a line: SPR; immobilized biotinylated aptamer, HBS-EP+ buffer, global fit. Conditions: label: biotin. How it is done:
FIG. 4 illustrates results from a binding assay showing the binding affinity of an exemplary aptamer (Aptamer ID BTX176881 (SEQ ID NO. 98883)) to the target EpCAM protein at various target concentrations. The aptamer to be tested is fixed to a substrate using a biotin tail and is incubated with various concentrations of target (125, 250 and 500 nM). The test is performed on a surface plasmon resonance machine (SPR). The SPR machine detects association and disassociation of the aptamer and the target. Target is applied until the association and disassociation events are equal, resulting in a plateau of the curve. The equations describing the curve at each concentration can then be used to calculate the KD of the aptamer (see Table 5).
The Biacore 200 control software is programmed with the following conditions: Solution: HBS-EP+Buffer; Number of cycles: 3; Contact time: 120s; Flow rate: 30 μl/min; Dissociation time: 300s; Solution: Glycine-HCl pH 2.5; Contact time: 120s; Flow rate: 20 μl/min; Stabilization period: Os. The binding affinities of these aptamers are then measured using the SPR assay above, or an alternate in vitro assay assessing the aptamer for a desired function.
The source holds these as a separate data set. A general note: In SPR one partner is held on a chip, and binding of the other changes the refractive index at the surface.

What is called Kd is the free concentration of one partner at which half of the binding sites on the other are occupied at equilibrium, for simple one-to-one binding.

Sequence of PSMA (FOLH1/NAALADase I) (Q04609 44-750, one chain of several): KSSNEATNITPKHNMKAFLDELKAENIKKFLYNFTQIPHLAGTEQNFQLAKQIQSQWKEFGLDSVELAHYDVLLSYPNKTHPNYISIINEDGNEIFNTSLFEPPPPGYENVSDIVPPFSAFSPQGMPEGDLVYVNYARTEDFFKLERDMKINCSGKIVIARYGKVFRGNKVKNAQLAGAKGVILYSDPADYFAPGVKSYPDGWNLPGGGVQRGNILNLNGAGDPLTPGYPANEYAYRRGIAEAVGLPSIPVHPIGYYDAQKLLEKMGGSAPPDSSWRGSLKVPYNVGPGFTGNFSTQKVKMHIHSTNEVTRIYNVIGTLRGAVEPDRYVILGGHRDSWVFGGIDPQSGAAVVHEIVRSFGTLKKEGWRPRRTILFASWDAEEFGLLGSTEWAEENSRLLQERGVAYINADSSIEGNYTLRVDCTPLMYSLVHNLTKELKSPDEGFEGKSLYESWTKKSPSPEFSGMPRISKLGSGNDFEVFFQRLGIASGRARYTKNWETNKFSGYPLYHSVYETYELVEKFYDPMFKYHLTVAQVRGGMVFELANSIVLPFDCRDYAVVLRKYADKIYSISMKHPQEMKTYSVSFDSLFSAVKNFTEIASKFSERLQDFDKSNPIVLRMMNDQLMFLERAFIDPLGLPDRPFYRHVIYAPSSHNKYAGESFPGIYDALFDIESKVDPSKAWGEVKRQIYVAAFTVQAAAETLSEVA

B1: CAR050 (ssDNA)
DNA: ACTAAGCCACCGTGTCCACCCCCCTCTGTCTCTTGTTTCTCTTTTCTATGCTGCGTCACTCTGGAT
modifications: 5' biotin
On to B1, for which the binding result in the series with PSMA (FOLH1/NAALADase I) is reported as “binds”.

As for CTGTGAGGCGTACTGCGGTGAGCCTCTCATTA (ssDNA, 3' tail of 6 thymines and biotin) [BTX187269], in the series with EpCAM [1], the affinity, expressed as Kd, was 7.12 nM.

B2: CAR003 (ssDNA)
DNA: ATCCAGAGTGACGCAGCAGTCTTTTCTGATGGACACGTGGTGGTCTAGTATCTGGACACGGTGGCTTAGT
modifications: 3' biotin (CAR003.2_3'-B, same bases as SEQ 230823)
For B2, the binding result in the series with EpCAM [2] is on record as “binds”.

B3: CAR016 (ssDNA)
DNA: ACTAAGCCACCGTGTCCAACGTAAGTATATCTGTACAATGCTGCGTCACTCTGGAT
modifications: 5' biotin
With B3, in the series with EpCAM [3], the binding result was “binds”.

B4: CAR051 (ssDNA)
DNA: ACTAAGCCACCGTGTCCAGCCCTATTCCCTCGCTTTCTCCCCTTTTGTTGCTGCGTCACTCTGGAT
modifications: 5' biotin
Consider B4, for which, in the series with PSMA (FOLH1/NAALADase I), the binding result is reported as “binds”.

Regarding CCCCCCGAATCACATGACTTGGGCGGGGGTCG (ssDNA, 3' tail of 6 thymines and biotin) [Aptamer 4], binding with EpCAM [1] was put at a Kd of 10.1 nM.

CCGCGCAGATATACAACGTACCTCTGTGCGCA (ssDNA, 3' tail of 6 thymines and biotin) [BTX176881]: binding with EpCAM [4] was put at a Kd of 8.4 nM.

For the origin of these results see US20160003835, “APTAMERS AND USES THEREOF” (CARIS LIFE SCIENCES SWITZERLAND HOLDINGS S.A.R.L., published 2016).
